According to patent publication US20170056486A1:

What was measured:
HLA-A*24 (human) [1] = assay: UV-exchange ELISA (anti-b2m); yield 20%-49%
HLA-A*24 (human) [2] = assay: UV-exchange ELISA (anti-b2m); yield >=75%
HLA-A*24 (human) [3] = assay: UV-exchange ELISA (anti-b2m); yield <20%

| Binder | peptide exchange yield (HLA-A*24 (human) [1]) | peptide exchange yield (HLA-A*24 (human) [2]) | also measured |
| --- | --- | --- | --- |
| VYNYAEQTL | 20 to 49% | – | – |
| KYTSYILAF | 20 to 49% | – | – |
| VYPDTVALTF | 20 to 49% | – | – |
| KFFDDLGDELLF | 20 to 49% | – | – |
| AYKSEVVYF | – | > 75% | – |
| KFDDVTMLF | – | > 75% | – |
| SYAPPSEDLF | 20 to 49% | – | – |
| YFIKSPPSQLF | 20 to 49% | – | – |
| KYYRQTLLF | 20 to 49% | – | – |
| KYTHFIQSF | – | > 75% | – |
| EYLQNLNHI | – | > 75% | – |
| QFITSTNTF | – | > 75% | – |
| SFLNIEKTEILF | 20 to 49% | – | – |
| VYNAVSTSF | 20 to 49% | – | – |
| NYGVLHVTF | – | > 75% | – |
| AYSHLRYVF | 20 to 49% | – | – |
| VFIAQGYTL | – | > 75% | – |

| Binder | peptide exchange yield (HLA-A*24 (human) [1]) | peptide exchange yield (HLA-A*24 (human) [2]) | also measured |
| --- | --- | --- | --- |
| SYAELGTTI | 20 to 49% | – | – |
| KYLSVQLTL | 20 to 49% | – | – |
| IFITKALQI | 20 to 49% | – | – |
| SYVASFFLL | 20 to 49% | – | – |
| VYTPVLEHL | 20 to 49% | – | – |
| NYENKQYLF | – | > 75% | – |
| KYSDVKNLI | – | > 75% | – |
| LYQDHMQYI | 20 to 49% | – | – |
| NYMPGQLTI | – | > 75% | – |
| TYKDYVDLF | – | – | peptide exchange yield (HLA-A*24 (human) [3]): < 20% |
| MYLKLVQLF | 20 to 49% | – | – |
| VFIDHPVHL | – | > 75% | – |
| VFLPRVTEL | 20 to 49% | – | – |
| KYPDIASPTF | 20 to 49% | – | – |
| SYAPPSEDLFL | 20 to 49% | – | – |
| VYTGIDHHW | – | > 75% | – |
| DYVGFTLKI | 20 to 49% | – | – |
